Here are results for 14 molecules from patent US20240270821A1, “GIP/GLP1/GCG TRI-RECEPTOR AGONISTS AND USES THEREOF” (priority 2023, published 2024).

Test in all cases: cell-based or functional assay
Assay [1] has as its target T1, human GIP receptor (human) (UniProt P48546).
T1 sequence (looked up): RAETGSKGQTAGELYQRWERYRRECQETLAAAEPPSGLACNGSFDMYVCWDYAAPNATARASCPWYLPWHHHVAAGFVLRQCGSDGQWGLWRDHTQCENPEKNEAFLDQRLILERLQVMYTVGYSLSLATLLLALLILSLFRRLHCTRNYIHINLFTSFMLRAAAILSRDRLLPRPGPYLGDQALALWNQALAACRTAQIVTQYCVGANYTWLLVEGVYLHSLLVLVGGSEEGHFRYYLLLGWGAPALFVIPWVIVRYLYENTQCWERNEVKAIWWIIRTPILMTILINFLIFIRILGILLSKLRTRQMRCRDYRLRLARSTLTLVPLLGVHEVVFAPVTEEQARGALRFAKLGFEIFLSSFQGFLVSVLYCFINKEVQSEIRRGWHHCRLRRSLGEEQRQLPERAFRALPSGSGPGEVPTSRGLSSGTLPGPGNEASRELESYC

Assay [2] deals with hGLP-1R (Homo sapiens, UniProt P43220).
hGLP-1R, sequence (P43220 24-463): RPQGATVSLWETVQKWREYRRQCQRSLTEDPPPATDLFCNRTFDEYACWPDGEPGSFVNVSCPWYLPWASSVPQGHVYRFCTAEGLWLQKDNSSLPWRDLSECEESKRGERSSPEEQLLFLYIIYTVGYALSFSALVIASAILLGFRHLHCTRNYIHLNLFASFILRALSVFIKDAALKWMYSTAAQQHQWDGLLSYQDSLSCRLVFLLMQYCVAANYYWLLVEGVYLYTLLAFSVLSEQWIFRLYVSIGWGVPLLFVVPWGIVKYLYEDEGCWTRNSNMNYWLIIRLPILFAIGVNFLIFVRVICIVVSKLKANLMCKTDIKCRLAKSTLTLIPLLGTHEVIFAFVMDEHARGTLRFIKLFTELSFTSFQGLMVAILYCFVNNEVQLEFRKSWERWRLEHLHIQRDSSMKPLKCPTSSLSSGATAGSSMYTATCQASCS
Assay [3] deals with human glucagon receptor (human) (UniProt P47871).
human glucagon receptor (human), sequence (P47871 26-477): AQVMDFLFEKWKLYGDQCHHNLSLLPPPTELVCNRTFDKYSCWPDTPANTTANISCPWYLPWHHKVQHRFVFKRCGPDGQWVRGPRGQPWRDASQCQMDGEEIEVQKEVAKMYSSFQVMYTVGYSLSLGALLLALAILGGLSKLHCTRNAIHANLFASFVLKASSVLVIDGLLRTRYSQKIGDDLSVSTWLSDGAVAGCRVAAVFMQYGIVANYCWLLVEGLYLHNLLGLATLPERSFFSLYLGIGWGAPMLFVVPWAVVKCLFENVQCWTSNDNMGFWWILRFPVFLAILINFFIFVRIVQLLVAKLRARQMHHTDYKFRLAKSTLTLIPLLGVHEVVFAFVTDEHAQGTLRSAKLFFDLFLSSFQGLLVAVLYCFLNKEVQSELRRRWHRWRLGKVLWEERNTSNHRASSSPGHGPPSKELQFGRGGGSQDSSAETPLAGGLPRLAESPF

B1: Example 1030 (peptide)
chain: YXQGTFTSDXSQXLDKKAQXAFIEYLIAGGPSSGAPPPSGSEE
modifications: synthetic construct; SITE 2: note = 2-Aminoisobutyric Acid; SITE 10: note = 3-(4-Pyridyl)-L-alanine; SITE 13: note = alpha-methyl-leucine; SITE 17: note = Lysine is chemically modified through conjugation of the epsilon-amino group of the Lysine side chain with (Glu)-(gamma-Glu)-CO-(CH2)16-CO2H; SIT
Turning to B1, the Relative cAMP EC50 in assay [1] stood at 0.122 nM; in assay [2], 1.72 nM; in assay [3], 9.42 nM. Also, the cAMP Rel EC50, nM (1% HSA) came out at 21 nM in assay [1], 385 nM in assay [2] and 1830 nM in assay [3].

B2: Example 1033 (peptide)
chain: YXQGTFTSDXSQXLDXKAQXAFIEYLIAGGPSSGAPPPSGSEE
modifications: Aib, 4Pal, Me4Pal, Orn, alpha-methyl-Leu, lipidated Lys, amide; synthetic construct; SITE 2: note = 2-Aminoisobutyric Acid; SITE 10: note = 3-(4-Pyridyl)-L-alanine; SITE 13: note = alpha-methyl-leucine; SITE 16: note = L-ornithine; SITE 17: note = Lysine is chemically modified through conjugation of the epsilon-amino group of the Lysine side chain with (Glu)2-(g)
As to B2, the cAMP Rel EC50, nM (1% HSA) stood at 23.4 nM in assay [1], 221 nM in assay [2] and 2170 nM in assay [3].

B3: Example 1029 (peptide)
chain: YXQGTFTSDXSQXLDKKAQXAFIEYLIAGGPSSGAPPPSGSEE
modifications: non-natural residues; AEEA-γGlu-C18 diacid on Lys; amide; synthetic construct; SITE 2: note = 2-Aminoisobutyric Acid; SITE 10: note = 3-(4-Pyridyl)-L-alanine; SITE 13: note = alpha-methyl-leucine; SITE 17: note = Lysine is chemically modified through conjugation of the epsilon-amino group of the Lysine side chain with (2-[2-(2-Amino-ethoxy)-ethoxy]-acetyl)
With B3, the cAMP Rel EC50, nM (1% HSA) stood at 22.3 nM in assay [1], 170 nM in assay [2] and 511 nM in assay [3].

B4: Example 1037 (peptide)
chain: YXQGTFTSDXSQXLDKKAQXAFIEYLLAGGPSSGAPPPSGSEE
modifications: AEEA-γGlu-C18 diacid on Lys; non-natural residues; amide; synthetic construct; SITE 2: note = 2-Aminoisobutyric Acid; SITE 10: note = 3-(4-Pyridyl)-L-alanine; SITE 13: note = alpha-methyl-leucine; SITE 17: note = Lysine is chemically modified through conjugation of the epsilon-amino group of the Lysine side chain with (2-[2-(2-Amino-ethoxy)-ethoxy]-acetyl)
Consider B4, for which the cAMP Rel EC50, nM (1% HSA) worked out at 13.7 nM in assay [1], 625 nM in assay [2] and 291 nM in assay [3].

B5: Example 1034 (peptide)
chain: YXQGTFTSDXSQXLDXKAQXAFIEYLIAGGPSSGAPPPSGSEE
modifications: non-natural residues; lipidated Lys; C-terminal amide; synthetic construct; SITE 2: note = 2-Aminoisobutyric Acid; SITE 10: note = 3-(4-Pyridyl)-L-alanine; SITE 13: note = alpha-methyl-leucine; SITE 16: note = L-ornithine; SITE 17: note = Lysine is chemically modified through conjugation of the epsilon-amino group of the Lysine side chain with D-Glutami
Take B5: the cAMP Rel EC50, nM (1% HSA) came to 23 nM in assay [1], 317 nM in assay [2] and 1890 nM in assay [3].

B6: Example 1042 (peptide)
chain: YXQGTFTSDXSQXLDXKAQXAFIEXLIEGGPSSGAPPPSGSEE
modifications: not fully specified; non-natural residues; lipidated Lys; C-terminal amide; synthetic construct; SITE 2: note = 2-Aminoisobutyric Acid; SITE 10: note = 3-(4-Pyridyl)-L-alanine; SITE 13: note = alpha-methyl-leucine; SITE 16: note = L-ornithine; SITE 17: note = Lysine is chemically modified through conjugation of the epsilon-amino group of the Lysine side chain with (2-[2-(2-
For the molecule B6, the cAMP Rel EC50, nM (1% HSA) in assay [1] was 84.8 nM; in assay [2] it was 642 nM; in assay [3], 1890 nM.

B7: Example 1028 (peptide)
chain: YXQGTFTSDXSQXLDXKAQXAFIEXLIEGGPSSGEPPPSGSEE
modifications: non-natural residues; lysine acylated with C18 diacid; C-terminal amide; synthetic construct; SITE 2: note = 2-Aminoisobutyric Acid; SITE 10: note = 3-(4-Pyridyl)-L-alanine; SITE 13: note = alpha-methyl-leucine; SITE 16: note = L-ornithine; SITE 17: note = Lysine is chemically modified through conjugation of the epsilon-amino group of the Lysine side chain with (gamma-Gl)
Turning to B7, the Relative cAMP EC50 in assay [1] was 0.189 nM; in assay [2], 1.34 nM; in assay [3] it was 5.77 nM. The cAMP Rel EC50, nM (1% HSA) in assay [1] came to 157 nM; in assay [2] it was 986 nM; in assay [3], 3910 nM.

B8: Example 1035 (peptide)
chain: YXQGTFTSDXSQXLDXKAQXAFIEYLIAGGPSSGAPPPSGSEE
modifications: non-natural residues; acylated Lys; C-terminal amide; synthetic construct; SITE 2: note = 2-Aminoisobutyric Acid; SITE 10: note = 3-(4-Pyridyl)-L-alanine; SITE 13: note = alpha-methyl-leucine; SITE 16: note = L-ornithine; SITE 17: note = Lysine is chemically modified through conjugation of the epsilon-amino group of the Lysine side chain with (gamma-Gl)
On to B8, for which the cAMP Rel EC50, nM (1% HSA) was 16 nM in assay [1], 167 nM in assay [2] and 1380 nM in assay [3].

B9: Example 1036 (peptide)
chain: YXQGTFTSDXSQXLDKKAQXAFIEYLLAGGPSSGAPPPSGSEE
modifications: synthetic construct; SITE 2: note = 2-Aminoisobutyric Acid; SITE 10: note = 3-(4-Pyridyl)-L-alanine; SITE 13: note = alpha-methyl-leucine; SITE 17: note = Lysine is chemically modified through conjugation of the epsilon-amino group of the Lysine side chain with (gamma-Glu)2-CO-(CH2)16-CO2H; SITE 20:
As for B9, the values for the Relative cAMP EC50 in assay [1], in assay [2] and in assay [3] were 0.114 nM, 6.87 nM and 2.05 nM, respectively. For the same molecule, the cAMP Rel EC50, nM (1% HSA) in assay [1] is 13 nM; in assay [2] it was 1080 nM; in assay [3], 353 nM.

B10: Example 1031 (peptide)
chain: YXQGTFTSDXSQXLDXKAQXAFIEYLIAGGPSSGAPPPSGSEE
modifications: non-natural residues; C18 diacid-(γ-Glu)2 acyl on Lys; C-terminal amide; synthetic construct; SITE 2: note = 2-Aminoisobutyric Acid; SITE 10: note = 3-(4-Pyridyl)-L-alanine; SITE 13: note = alpha-methyl-leucine; SITE 16: note = L-ornithine; SITE 17: note = Lysine is chemically modified through conjugation of the epsilon-amino group of the Lysine side chain with (gamma-Gl)
Take B10: the cAMP Rel EC50, nM (1% HSA) in assay [1] turned out to be 17.3 nM; in assay [2] it was 152 nM; in assay [3] it was 1200 nM.

B11: Example 1022 (peptide)
chain: YXQGTFTSDXSQXLDXKAQXAFIEYLIEAGPSSGAPPPSGSE
modifications: not fully specified; Aib, 4Pal, αMeL, Orn, Me4Pal, acylated K, C-terminal amide; synthetic construct; SITE 2: note = 2-Aminoisobutyric Acid; SITE 10: note = 3-(4-Pyridyl)-L-alanine; SITE 13: note = alpha-methyl-leucine; SITE 16: note = L-ornithine; SITE 17: note = Lysine is chemically modified through conjugation of the epsilon-amino group of the Lysine side chain with (2-[2-(2-
Consider B11, for which the cAMP Rel EC50, nM (1% HSA) was found to be 27.9 nM in assay [1], 203 nM in assay [2] and 586 nM in assay [3].

B12: Example 1025 (peptide)
chain: YXQGTFTSDXSQXLDKKAQXAFIEYLIEAGPSSGAPPPSGSE
modifications: synthetic construct; SITE 2: note = 2-Aminoisobutyric Acid; SITE 10: note = 3-(4-Pyridyl)-L-alanine; SITE 13: note = alpha-methyl-leucine; SITE 17: note = Lysine is chemically modified through conjugation of the epsilon-amino group of the Lysine side chain with (gamma-Glu)2-CO-(CH2)16-CO2H; SITE 20:
As for B12, the Relative cAMP EC50 worked out at 0.18 nM in assay [1], 2.45 nM in assay [2] and 3.22 nM in assay [3]. The cAMP Rel EC50, nM (1% HSA) came to 31.5 nM in assay [1], 352 nM in assay [2] and 625 nM in assay [3].

B13: Example 1023 (peptide)
chain: YXQGTFTSDXSQXLDXKAQXAFIEYLIEAGPSSGAPPPSGSE
modifications: not fully specified; acylated lysine (γGlu)2-C18 diacid; non-natural residues; C-terminal amide; synthetic construct; SITE 2: note = 2-Aminoisobutyric Acid; SITE 10: note = 3-(4-Pyridyl)-L-alanine; SITE 13: note = alpha-methyl-leucine; SITE 16: note = L-ornithine; SITE 17: note = Lysine is chemically modified through conjugation of the epsilon-amino group of the Lysine side chain with (gamma-Gl)
For B13, the cAMP Rel EC50, nM (1% HSA) turned out to be 26 nM in assay [1], 230 nM in assay [2] and 856 nM in assay [3].

B14: Example 1024 (peptide)
chain: YXQGTFTSDXSQXLDKKAQXAFIEYLIEAGPSSGAPPPSGSE
modifications: Aib, 4Pal, αMeL, Me4Pal; K acylated AEEA-(γGlu)2-C18 diacid; amide; synthetic construct; SITE 2: note = 2-Aminoisobutyric Acid; SITE 10: note = 3-(4-Pyridyl)-L-alanine; SITE 13: note = alpha-methyl-leucine; SITE 17: note = Lysine is chemically modified through conjugation of the epsilon-amino group of the Lysine side chain with (2-[2-(2-Amino-ethoxy)-ethoxy]-acetyl)
On to B14, for which the cAMP Rel EC50, nM (1% HSA) in assay [1] amounted to 32.5 nM; in assay [2], 330 nM; in assay [3], 760 nM.
